A short description of series [1]: Pig PK (plasma ELISA). The class given is in vivo. To be noted: weaner pigs; 1.2 mg/kg IV and SC. How it is done:
Porcine CSF-1 Fc-fusion plasma levels were detected using an in-house developed conventional sandwich ELISA utilizing commercially available antibodies. Capture antibody was Abcam ab9693 (0.3 μg/mL) and detection antibody was Rabbit anti-pig IgG (Fc) biotinylated Alpha Diagnostic 90440 (1:5000 dilution). Standard protein was generated and purified in-house (lot 2/24/11 JAS). Standards were added to each plate along with the samples resulting in an 11 point standard range of 2700 ng/mL to […]. This allowed for quantitation of each sample to a standard curve on every assay plate. Assay detection was done using Pierce High Sensitivity Streptavidin-HRP (1:10,000 dilution) and TMB Microwell Peroxidase Substrate System solution (KPL).
Weaner age barrows (<14 kg) were assigned to three treatment groups receiving a single intravenous (IV) or subcutaneous (SC) dose as follows. Three pigs received 0.5 mg/kg CSF-1 non-fusion dosed SC. Two pigs received 1.2 mg/kg CSF-1:Fc fusion dosed IV. Two pigs received 1.2 mg/kg CSF-1:Fc dosed SC. One ml plasma samples were obtained via the V. jugularis in EDTA anticoagulant tubes and placed on ice until centrifuged. The plasma was transferred to sterile tubes stored at ≤−10° C. until analysis. Serial plasma samples were obtained from each animal at pre-dose and 5 minutes, 30 minutes, 1 hour, 2 hours, 4 hours, 6 hours, 8, hours, 24 hours, 48 hours, and 72 hours post-dose. CSF-1 and CSF-1:Fc fusion protein levels were quantitated in plasma using ELISA assays.
(An ELISA detects its analyte on a solid surface through an enzyme-linked reagent.)

Series [2] has as its system weaner pigs. The series can be described thus: Preliminary experiment on weaners, circulating monocytes. As to conditions: three treatments with 0.4 mg/kg every alternative day. The series is classed as in vivo, pig. How it is done:
Note that the peak plasma level obtained is only around 100 ng/ml, and it is completely cleared by 20 hours. By contrast, Fc-CSF-1 (FIGS. 9B and C) attains 100-fold higher plasma concentrations and remains elevated for up to 72 hours. A preliminary experiment on weaners determined that three treatments with 0.4 mg/kg with Fc-CSF-1 every alternative day produced a 2-3 fold increase in circulating monocyte numbers.

B1: Fc-CSF-1: active fragment of porcine CSF-1 (SEQ ID NO:1) linked to the hinge-CH3 region of porcine IgG1a (SEQ ID NO:2) (protein, listed as Sus scrofa)
chain: SENCSHMIGDGHLKVLQQLIDSQMETSCQIAFEFVDQEQLTDPVCYLKKAFLQVQDILDETMRFRDNTPNANVIVQLQELSLRLNSCFTKDYEEQDKACVRTFYETPLQLLEKIKNVFNETKNLLKKDWNIFSKNCNNSFAKCSSQHERQPEGRGTKTKPPCPICPGCEVAGPSVFIFPPKPKDTLMISQTPEVTCVVVDVSKEHAEVQFSWYVDGVEVHTAETRPKEEQFNSTYRVVSVLPIQHQDWLKGKEFKCKVNNVDLPAPITRTISKAIGQSREPQVYTLPPPAEELSRSKVTVTCLVIGFYPPDIHVEWKSNGQPEPEGNYRTTPPQQDVDGTFFLYSKLAVDKARWDHGETFECAVMHEALHNHYTQKSISKTQGK
Regarding B1, in series [1], the “plasma concentrations relative to unmodified CSF-1” value is given as 100 fold and the “time plasma level remains elevated” value is reported as “up to 72 hours”. For the same molecule, the “increase in circulating monocyte numbers” value in series [2] is on record as 2-3 fold.

The values are drawn from US20180112193A1, “CSF1 THERAPEUTICS” (University Court Of The University Of Edinburgh, priority 2013, published 2018).
